According to patent US11278600B2, “Human alpha-galactosidase variants” (Codexis, Inc., priority 2014, dated 2022):
Changes are numbered by the printed parent chain. Names may count otherwise.

How the values were obtained:
Assay type in all cases: biochemical
GLA = molecular target: T1, GLA (Homo sapiens, UniProt P06280); test: Effect of Migalastat on thermostability and activity of GLA (HEK293T supernatants)
T1 construct: made in house; host or cells: HEK293 / HEK293T cells, transient transfection; unpurified culture supernatant used
T1 sequence (P06280 32-429): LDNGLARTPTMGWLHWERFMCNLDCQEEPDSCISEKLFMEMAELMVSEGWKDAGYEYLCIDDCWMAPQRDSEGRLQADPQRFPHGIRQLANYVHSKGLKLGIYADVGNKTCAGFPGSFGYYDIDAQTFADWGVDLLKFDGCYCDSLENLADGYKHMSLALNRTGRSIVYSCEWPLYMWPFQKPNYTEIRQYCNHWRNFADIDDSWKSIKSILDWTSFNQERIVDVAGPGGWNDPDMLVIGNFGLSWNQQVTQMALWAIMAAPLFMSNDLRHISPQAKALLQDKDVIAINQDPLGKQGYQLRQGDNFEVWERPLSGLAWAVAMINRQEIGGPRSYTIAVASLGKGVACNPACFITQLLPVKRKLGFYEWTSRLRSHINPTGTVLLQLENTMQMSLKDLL
Description: GLA variants were challenged at various temperatures in the presence and absence of 1 μM 1-deoxygalactonojirimycin (Migalastat) to assess their overall stability. Supernatants from mammalian cell cultures were normalized to approximately equal activities by dilution with supernatant from a non GLA expressing culture. Diluted supernatants were added to the wells of a 96-well PCR plate (Biorad, HSP-9601). The plates were sealed and incubated at 30-54° C. for 1 h using the gradient program of a thermocycler. For the assay, 20 μL, of challenged supernatant was mixed with 30 μL, of 1 M citrate buffer pH 4.3 and 50 μL, of 4 mM MUGal in McIlvaine buffer pH 4.8. The reactions were mixed briefly and incubated at 37° C. for 90 minutes, prior to quenching with 100 μL, of 1 M sodium carbonate. Hydrolysis was analyzed using a SpectraMax® M2 microplate reader monitoring fluorescence (Ex. 355 nm, Em. 448 nm).

[1] = Thermostability of GLA variants expressed in HEK293T cells; conditions: HEK293T supernatants; 30-54° C. for 1 h; residual MUGal activity
[2] = HTP-analysis of yeast culture supernatants, no challenge (MUGal hydrolysis); conditions: activity of the variant/activity of Rd3BB (SEQ ID NO: 13), yeast culture supernatant
In short: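 Activity read as 4-methylumbelliferyl α-D-galactopyranoside hydrolysis: fluorescence (355/448 nm) after sodium carbonate stop, following 30-180 min at 37° C with 2 mM MUGal stock at pH 4.6–4.8. Enzyme source is unchallenged culture supernatant of INVSc1 yeast expressing GLA variants, grown 66-84 h at 30° C.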

[3] = HTP-analysis of supernatants pretreated with acid (MUGal hydrolysis); conditions: challenge at pH 4.0; activity of the variant/activity of Rd3BB (SEQ ID NO: 13); yeast culture supernatant
In short: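 MUGal hydrolysis was tracked by fluorescence (Ex 355 nm, Em 448 nm) after a 30-180 min reaction at 37° C. in pH 4.8 McIlvaine/citrate buffer, stopped with 1 M sodium carbonate. Beforehand, yeast (INVSc1) culture supernatants carrying GLA variants were held 1-3 h at 37° C. in acidic McIlvaine buffer, pH 3.3-4.3.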

[4] = HTP-analysis of supernatants pretreated with base (MUGal hydrolysis); conditions: challenge at pH 8.2; activity of the variant/activity of Rd3BB (SEQ ID NO: 13); yeast culture supernatant
In short: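 Fluorescence of released 4-MU (Ex 355 nm, Em 448 nm) after carbonate quench reports MUGal hydrolysis by GLA variants secreted from INVSc1 yeast. Before the acidic (pH 4.3-4.8) 30-180 min reaction at 37° C, supernatants had been pre-incubated at pH 7.0-9.7 for 1-18 h at 37° C.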

[5] = HTP-analysis of supernatants pretreated with bovine serum (MUGal hydrolysis); conditions: activity of the variant/activity of Rd3BB (SEQ ID NO: 13), yeast culture supernatant
In short: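 Yeast INVSc1 culture supernatants containing secreted GLA variants were mixed with bovine serum (20:80) and held 1 h at 37° C. Serum-treated samples then reacted with MUGal (4 mM stock) in citrate/McIlvaine buffer (pH 4.3/4.8) for 180 min at 37° C., were quenched with sodium carbonate, and read by fluorescence (Ex 355, Em 448 nm).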

[6] = Optimization of signal peptide for secreted expression of GLA by S. cerevisiae
From the text: Two strategies for secreted GLA expression were utilized, using the yeast MFa signal peptide (MF-SP) or a longer leader sequence of 83 amino acids (MF-leader) to drive secretion of a yeast codon-optimized mature human GLA. Clones were expressed from a pYT-72 vector in S. cerevisiae strain INVSc1. Both approaches provided supernatants with measurable activity on the fluorogenic substrate 4-methylumbelliferyl α-D-galactopyranoside (4-MuGal). However, the construct with the yeast MFa signal peptide provided 3-fold higher activities and was used as the starting sequence for directed evolution.
S. cerevisiae transformed with Mfleader-GLA (SEQ ID NO:7), SP-GLA (SEQ ID NO:36) or a vector control were grown in HTP as described in Example 2. Cultures were grown for 48-120 h prior to harvest of the supernatant and analysis (n=6) as described in Example 2. FIG. 1 provides a graph showing the relative activity of different GLA constructs in S. cerevisiae after 2-5 days of culturing.

Molecule: OC[C@H]1NC[C@H](O)[C@@H](O)[C@H]1O [Migalastat, 1-deoxygalactonojirimycin]
- reduction of GLA activity in the Migalastat treated sample (GLA; 0.2 μM final concentration in the assay): ~60%
- increase of Tm of GLA by addition of Migalastat (GLA; 1 μM Migalastat during temperature challenge): 5.5 °C

B1: Variant 73: GLA variant; K206A relative to SEQ ID NO: 5 (protein)
chain: T1 sequence (P06280 32-429) with K206A
modifications: Synthetic Polypeptide sequence of Variant No. 73
- increase of Tm of the enzyme [1]: 2 °C

B2: 359 (protein)
chain: LDNGLARTPTMGWLHWERFMCNLDCQEEPDSCISEKLFMEMAERMVSEGWKDAGYEYLCIDDCWMAPQRDSEGRLQADPQRFPHGIRQLANYVHSKGLKFGIYADVGNKTCAGFPGSFGYYDIDAQTFADWGVDLLKFDGCYCDSLENLADGYKHMSLALNRTGRSIVYSCEWPLYMWPFIKPNYTEIRQYCNHWRNFADIDDSWASIKSILDWTSFNQETIVDVAGPGGWNDPDMLVIGNFGLSWDQQVTQMALWAIMAAPLFMSNDLRHISPQAKALLQDKDVIAINQDPLGKQGYQLRKGDNFEVWERPLSGLAWAVAVINRQEIGGPRSYTIAVASLGKGVACNPACFITQLLPVKRKLGFYNWTSRLKSHVNPTGTVLLQLENTMQMSLKDLL
modifications: Synthetic Polypeptide sequence of Variant No. 359 of mature Human GLA
- Relative Activity of GLA Variants After No Challenge (NC) [2]: + (+ = 0.5 to 1.5 relative activity over Rd3BB (SEQ ID NO: 13))
- Relative Activity of GLA Variants After Challenge at pH 4.0 [3]: + (+ = 0.5 to 1.5 relative activity over Rd3BB (SEQ ID NO: 13))
- Relative Activity of GLA Variants After Challenge at pH 8.2 [4]: +++ (+++ = >2.5 relative activity over Rd3BB (SEQ ID NO: 13))
- Relative Activity of GLA Variants After Challenge with Serum [5]: + (+ = 0.5 to 1.5 relative activity over Rd3BB (SEQ ID NO: 13))

B3: 298 (protein)
chain: T1 sequence (P06280 32-429) with K206A, F217R, N247D, L316D, M322I, A337P, A350G, K362Q, E367N, R373K
modifications: Synthetic Polypeptide sequence of Variant No. 298 of mature Human GLA
- Relative Activity of GLA Variants After No Challenge (NC) [2]: ++ (++ = >1.5 to 2.5 relative activity over Rd3BB (SEQ ID NO: 13))
- Relative Activity of GLA Variants After Challenge at pH 4.0 [3]: +++ (+++ = >2.5 relative activity over Rd3BB (SEQ ID NO: 13))
- Relative Activity of GLA Variants After Challenge at pH 8.2 [4]: +++ (+++ = >2.5 relative activity over Rd3BB (SEQ ID NO: 13))
- Relative Activity of GLA Variants After Challenge with Serum [5]: +++ (+++ = >2.5 relative activity over Rd3BB (SEQ ID NO: 13))

B4: 297 (protein)
chain: T1 sequence (P06280 32-429) with K206A, F217R, G230V, N247D, Q302K, M322I, E367N, T369S, R373K
modifications: Synthetic Polypeptide sequence of Variant No. 297 of mature Human GLA
- Relative Activity of GLA Variants After No Challenge (NC) [2]: − (− = <0.5 relative activity to Rd3BB (SEQ ID NO: 13))
- Relative Activity of GLA Variants After Challenge at pH 4.0 [3]: − (− = <0.5 relative activity to Rd3BB (SEQ ID NO: 13))
- Relative Activity of GLA Variants After Challenge at pH 8.2 [4]: − (− = <0.5 relative activity to Rd3BB (SEQ ID NO: 13))
- Relative Activity of GLA Variants After Challenge with Serum [5]: − (− = <0.5 relative activity to Rd3BB (SEQ ID NO: 13))

B5: 296 (protein)
chain: T1 sequence (P06280 32-429) with A66T, K206A, F217R, L316D, M322I, A337P, K343G, A350G, E367N, R373K
modifications: Synthetic Polypeptide sequence of Variant No. 296 of mature Human GLA
- Relative Activity of GLA Variants After No Challenge (NC) [2]: + (+ = 0.5 to 1.5 relative activity over Rd3BB (SEQ ID NO: 13))
- Relative Activity of GLA Variants After Challenge at pH 4.0 [3]: − (− = <0.5 relative activity to Rd3BB (SEQ ID NO: 13))
- Relative Activity of GLA Variants After Challenge at pH 8.2 [4]: − (− = <0.5 relative activity to Rd3BB (SEQ ID NO: 13))
- Relative Activity of GLA Variants After Challenge with Serum [5]: + (+ = 0.5 to 1.5 relative activity over Rd3BB (SEQ ID NO: 13))

B6: 299 (protein)
chain: T1 sequence (P06280 32-429) with K206A, F217R, N247D, Q302K, M322I, K343G, A350G, E367T, R373K, L397F
modifications: Synthetic Polypeptide sequence of Variant No. 299 of mature Human GLA
- Relative Activity of GLA Variants After No Challenge (NC) [2]: + (+ = 0.5 to 1.5 relative activity over Rd3BB (SEQ ID NO: 13))
- Relative Activity of GLA Variants After Challenge at pH 4.0 [3]: − (− = <0.5 relative activity to Rd3BB (SEQ ID NO: 13))
- Relative Activity of GLA Variants After Challenge at pH 8.2 [4]: − (− = <0.5 relative activity to Rd3BB (SEQ ID NO: 13))
- Relative Activity of GLA Variants After Challenge with Serum [5]: − (− = <0.5 relative activity to Rd3BB (SEQ ID NO: 13))

B7: SP-GLA: 19 amino acid S. cerevisae MFalpha signal peptide fused to the mature form of yeast-optimized GLA (protein)
chain: MRFPSIFTAVLFAASSALALDNGLARTPTMGWLHWERFMCNLDCQEEPDSCISEKLFMEMAELMVSEGWKDAGYEYLCIDDCWMAPQRDSEGRLQADPQRFPHGIRQLANYVHSKGLKLGIYADVGNKTCAGFPGSFGYYDIDAQTFADWGVDLLKFDGCYCDSLENLADGYKHMSLALNRTGRSIVYSCEWPLYMWPFQKPNYTEIRQYCNHWRNFADIDDSWKSIKSILDWTSFNQERIVDVAGPGGWNDPDMLVIGNFGLSWNQQVTQMALWAIMAAPLFMSNDLRHISPQAKALLQDKDVIAINQDPLGKQGYQLRQGDNFEVWERPLSGLAWAVAMINRQEIGGPRSYTIAVASLGKGVACNPACFITQLLPVKRKLGFYEWTSRLRSHINPTGTVLLQLENTMQMSLKDLL
modifications: Synthetic Polynucleotide sequence of SP-GLA (yCDS)
notes: 19 amino acid S. cerevisae MFalpha signal peptide fused to the mature form of yeast-optimized GLA
- level of active enzyme produced in S. cerevisiae ([6]; 2-5 days of culturing, saturated after three days of growth): high level of active enzyme
- supernatant activity on 4-MuGal, fold higher than MF-leader construct ([6]; S. cerevisiae INVSc1 supernatant, versus MF-leader construct): 3 fold
